Results: patent publication US20250011363A1, “OPTIMIZED SHORTENED PEPTIDE THAT BINDS TO ACETYLCHOLINE RECEPTOR, AND USE THEREOF” (SKINMED CO., LTD., priority 2021, published 2025)

biological target: acetylcholine receptor; assay: SPR, AchR immobilized on chip

Binder	Binding affinity (relative to RRQRR) (relative value to the RRQRR sequence)
GRRQRR	132
RRQRRG	109
ARRQRR	129

biological target: acetylcholine receptor; assay: SPR, peptide at 10 uM, acetylcholine receptor immobilized on chip

Binder	Binding affinity (RU)
KDHIR [5mer-611]	33
REHGK [5mer-911]	14
KCTDK [5mer-612]	23
KKMGR [5mer-912]	16
RAEFR [5mer-613]	20
KHTFK [5mer-913]	13
RNTWK [5mer-614]	29
RPTMR [5mer-914]	26
KCCNR [5mer-615]	20
KMTHR [5mer-915]	28
KFCPR [5mer-616]	15
RCHER [5mer-916]	12
RYCAK [5mer-617]	28
KCAPR [5mer-917]	11
RMSWK [5mer-618]	19
RNNVR [5mer-918]	12
KCSFK [5mer-619]	19
KNNIK [5mer-919]	32
RCMHK [5mer-620]	23
KPKIK [5mer-920]	15
KKSMK [5mer-621]	13
KKKFK [5mer-921]	21
RKPKR [5mer-622]	22
RMWKR [5mer-922]	14
KNTGR [5mer-623]	19
KCWMK [5mer-923]	19

Binder	Binding affinity (RU)
KEHER [5mer-624]	22
RNEKK [5mer-924]	27
KMCDR [5mer-625]	33
KDCFK [5mer-925]	25
KICMR [5mer-626]	12
RNCWK [5mer-926]	22
KMSPK [5mer-627]	30
RDEDR [5mer-927]	19
RYMDR [5mer-628]	19
KHMVR [5mer-928]	27
RPTNK [5mer-629]	32
KYTFR [5mer-929]	28
RITFR [5mer-630]	30
RAWVR [5mer-930]	20
RPANR [5mer-631]	17
RITER [5mer-931]	11
RFSHR [5mer-632]	33
RTAWK [5mer-932]	27
RAAKR [5mer-633]	20
RYMKK [5mer-933]	27
RMMMR [5mer-634]	26
KMMMR [5mer-934]	17
RMNGR [5mer-635]	21
RETFK [5mer-935]	32
KDKGR [5mer-636]	11
RNHKR [5mer-936]	29

Binder	Binding affinity (RU)
KCDHK [5mer-637]	28
KASNR [5mer-937]	21
KHCIR [5mer-638]	33
RIEFK [5mer-938]	18
KETWK [5mer-639]	13
KMHAR [5mer-939]	24
KNPHK [5mer-640]	15
KCMGK [5mer-940]	18
RITWK [5mer-641]	22
KNHHR [5mer-941]	21
RAWDR [5mer-642]	22
RPSDR [5mer-942]	11
KHDGR [5mer-643]	28
KDKGK [5mer-943]	12
RMKWK [5mer-644]	24
RYEFK [5mer-944]	25
RHKDK [5mer-645]	20
RYEKR [5mer-945]	23
KDTKR [5mer-646]	16
KYPWR [5mer-946]	32
KHTVK [5mer-647]	29
KDWIR [5mer-947]	27
KNKKR [5mer-648]	15
KDSFK [5mer-948]	18
